From the supplement of paper PMC10126150 come the findings set out here.

± gives the standard deviation of the averaged measurements.
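Also: ATP exposure 15 min at 22 °C before imaging.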

The data set concerns ATP. The data set can be described thus: switch fluorescence ratio, 500 uM ATP over buffer (Cy3 cluster intensity, sum of 5 cycles each) (fold (ratio)); higher = stronger signal-on switching upon ATP binding; sequences stand for … in TCGTCGGCAGCGTCAGATGTGTATAAGAGACAGTTTTTTTTTTTTTTTTTTTTTTTTT…TC. The note with it: aptamer strand: ATP DNA aptamer (quencher-CACCTGGGGGAGTATTGCGGAGGAAGG + anchor), 100 nM annealed; ATP concentration: 500 uM. The gist of the method: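 For every switch-domain sequence, the fluorescence ratio is the mean of per-cluster values, each being summed target-cycle Cy3 intensity over summed buffer-cycle Cy3 intensity. Clusters outside 100-1000 RFU were excluded. On a modified Illumina MiSeq flow-cell, the Cy3-labelled switching-strand clusters were annealed to 100 nM quencher-labelled ATP aptamer, imaged in selection buffer and then after 15 min with 500 uM ATP at 22 °C. Five such cycles were run, with NaOH stripping and re-annealing between them.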
Consider ACCTGAGGGG, for which the switch fluorescence ratio was 1.024 ± 0.0035.

As to CGTAGGGGAA, the switch fluorescence ratio worked out at 0.993 ± 0.02.

With TAATGGTCGT, the switch fluorescence ratio was 0.989 ± 0.029.

As for TTTTCGGGAA, the switch fluorescence ratio is 1.011 ± 0.0057.

Regarding GTGGGGAATC, the switch fluorescence ratio amounted to 1.02 ± 0.082.

Take TTTGTCAAGG: the switch fluorescence ratio is 1.02 ± 0.015.

For TGGCTGATTT, the switch fluorescence ratio turned out to be 1.003 ± 0.0053.

In the case of AGGGAGGGAA, the switch fluorescence ratio amounted to 1.01 ± 0.022.

With ATGAGGTGAT, the switch fluorescence ratio was 1.057 ± 0.0041.

Turning to GATAGTTTGT, the switch fluorescence ratio came to 1 ± 0.011.

Regarding CTAGGCCGGG, the switch fluorescence ratio was 0.98 ± 0.025.

With TAAATCCGGA, the switch fluorescence ratio was 0.995 ± 0.06.

For the sequence CCCTTGATGC, the switch fluorescence ratio came out at 1.151 ± 0.008.

On to CGCGCGGTGT, for which the switch fluorescence ratio turned out to be 1.17 ± 0.2.

In the case of TTGTTAAATA, the switch fluorescence ratio stood at 0.98 ± 0.011.

Regarding GGAATTTCGG, the switch fluorescence ratio was found to be 1.17 ± 0.23.

Regarding CACTTCCTTT, the switch fluorescence ratio came out at 1.39 ± 0.51.

Turning to TTTTTACCGA, the switch fluorescence ratio is 1.014 ± 0.0082.

As to TAAAGAAAAA, the switch fluorescence ratio came out at 1.02 ± 0.029.

Regarding GGTTGGAGGT, the switch fluorescence ratio stood at 0.971 ± 0.019.

Regarding GATTGTTGTA, the switch fluorescence ratio was determined as 0.979 ± 0.014.

On to TCGGAGATTT, for which the switch fluorescence ratio amounted to 0.97302 ± 0.00083.

Consider ACAAGCTTGT, for which the switch fluorescence ratio stood at 0.975 ± 0.063.

For CCATGTCAGC, the switch fluorescence ratio came to 1.03 ± 0.021.

For the sequence CTCTAAGT, the switch fluorescence ratio turned out to be 1.01 ± 0.017.

Regarding TGGGTCTGAT, the switch fluorescence ratio is 0.9865 ± 0.0031.

For the sequence TTATACGGAG, the switch fluorescence ratio turned out to be 1.01 ± 0.025.

For GTGTAATTAT, the switch fluorescence ratio came to 0.9697 ± 0.0055.

As to ATGCATGATT, the switch fluorescence ratio was determined as 0.9822 ± 0.0051.

Turning to CTGAGGGAGC, the switch fluorescence ratio was 1.09 ± 0.061.

On to TAACAGATGG, for which the switch fluorescence ratio was 1.01 ± 0.029.

As for ACAGGAGCTT, the switch fluorescence ratio is 1.05 ± 0.04.

On to TAACGCTTAA, for which the switch fluorescence ratio worked out at 1.09 ± 0.033.

Consider TTGTAATTAA, for which the switch fluorescence ratio turned out to be 0.9963 ± 0.0096.

With AGCCATAGTC, the switch fluorescence ratio came out at 1.113 ± 0.0056.

TACTTTCCCG: the switch fluorescence ratio was 1.29 ± 0.13.

As for GTAGTTTATG, the switch fluorescence ratio amounted to 0.996 ± 0.014.

With GCGAGGGGTT, the switch fluorescence ratio came to 0.969 ± 0.035.

With CGCGGTTGC, the switch fluorescence ratio was determined as 1.24 ± 0.038.

For the sequence AGCGGAGTGA, the switch fluorescence ratio was determined as 1.007 ± 0.0093.

With AACTTTAGGT, the switch fluorescence ratio is 0.987 ± 0.023.

Take GCTGTATGAG: the switch fluorescence ratio stood at 0.985 ± 0.029.

In the case of TTTTTTAAGC, the switch fluorescence ratio stood at 1.01 ± 0.018.

On to TTTGGTATGT, for which the switch fluorescence ratio turned out to be 1.03 ± 0.057.

On to GGCGTCCTGG, for which the switch fluorescence ratio turned out to be 1.03 ± 0.029.

Regarding TTTGTAGAGC, the switch fluorescence ratio worked out at 1.05 ± 0.063.

As to GATTTTGTGC, the switch fluorescence ratio amounted to 1 ± 0.054.

As to GGTAAAGGGA, the switch fluorescence ratio was 1.01 ± 0.036.

With CCCGGGAGGT, the switch fluorescence ratio was found to be 1.035 ± 0.0094.

With GCGCGGGGTA, the switch fluorescence ratio stood at 0.997 ± 0.029.

As for GCGCAAATCG, the switch fluorescence ratio stood at 1.009 ± 0.01.

Regarding TACCGGGTGG, the switch fluorescence ratio amounted to 1.06 ± 0.027.

As to GAGGGGCTTT, the switch fluorescence ratio came to 0.982 ± 0.018.

Take TTTTTAATTA: the switch fluorescence ratio was 1.005 ± 0.008.

As for ATTTCGTTGT, the switch fluorescence ratio was found to be 1 ± 0.07.

On to GAAACATGCT, for which the switch fluorescence ratio turned out to be 1.01 ± 0.052.

For TTACCATTAG, the switch fluorescence ratio came out at 0.965 ± 0.011.

As for TTTTTAGTAC, the switch fluorescence ratio was 0.99 ± 0.013.

Take CCCTGTGAGC: the switch fluorescence ratio is 1.08 ± 0.013.

On to ATGTCCGGGG, for which the switch fluorescence ratio was 0.985 ± 0.042.

Consider AGTGCTTACG, for which the switch fluorescence ratio was found to be 0.995 ± 0.025.

CAGTTATTCG: the switch fluorescence ratio came out at 0.977 ± 0.014.

Regarding TTTGTTGTTT, the switch fluorescence ratio is 0.986 ± 0.013.

Turning to AAGTCGGTTA, the switch fluorescence ratio was determined as 1 ± 0.02.

Regarding TATATGGCAT, the switch fluorescence ratio was 1.05 ± 0.085.

Consider GCGTGCGGGC, for which the switch fluorescence ratio worked out at 1.03 ± 0.043.

Take GACGTGTGAG: the switch fluorescence ratio stood at 0.993 ± 0.034.

As to AGCGCTATTT, the switch fluorescence ratio was determined as 1.04 ± 0.065.

With GAGGTGTGGG, the switch fluorescence ratio turned out to be 0.981 ± 0.016.

As to TGGGGTTGGG, the switch fluorescence ratio is 1 ± 0.044.

Take CCGGGGTGGT: the switch fluorescence ratio came to 1.07 ± 0.035.

Regarding TACTATGGGC, the switch fluorescence ratio stood at 1.03 ± 0.055.

AAGTGTTTTA: the switch fluorescence ratio is 1.001 ± 0.0045.

TTTTAAAAAA: the switch fluorescence ratio turned out to be 1 ± 0.026.

In the case of ATTTTTACGG, the switch fluorescence ratio stood at 1.01 ± 0.013.

In the case of CCGGTTTTTT, the switch fluorescence ratio was determined as 1.003 ± 0.0078.

On to GGCCGAGGGG, for which the switch fluorescence ratio was 1.01 ± 0.03.

Regarding GGGTAGGATA, the switch fluorescence ratio turned out to be 1.01 ± 0.012.
